According to paper PMC12246617, “Cryo-EM structures reveal the PP2A–B55α and Eya3 interaction that can be disrupted by a peptide inhibitor” (The Journal of Biological Chemistry, 2025):
Positions count from the first letter of the chain named. In names and notes the source's numbering stands.

B1: H79A: Eya3 H79A mutant protein from E. coli (protein, UniProt Q99504 1-573, looked up, variant H79A)
Protein phosphatase EYA3: MEEEQDLPEQPVKKAKMQESGEQTISQVSNPDVSDQKPETSSLASNLPMSEEIMTCTDYIPRSSNDYTSQMYSAKPYAAILSVPVSETAYPGQTQYQTLQQTQPYAVYPQATQTYGLPPFGALWPGMKPESGLIQTPSPSQHSVLTCTTGLTTSQPSPAHYSYPIQASSTNASLISTSSTIANIPAAAVASISNQDYPTYTILGQNQYQACYPSSSFGVTGQTNSDAESTTLAATTYQSEKPSVMAPAPAAQRLSSGDPSTSPSLSQTTPSKDTDDQSRKNMTSKNRGKRKADATSSQDSELERVFLWDLDETIIIFHSLLTGSYAQKYGKDPTVVIGSGLTMEEMIFEVADTHLFFNDLEECDQVHVEDVASDDNGQDLSNYSFSTDGFSGSGGSGSHGSSVGVQGGVDWMRKLAFRYRKVREIYDKHKSNVGGLLSPQRKEALQRLRAEIEVLTDSWLGTALKSLLLIQSRKNCVNVLITTTQLVPALAKVLLYGLGEIFPIENIYSATKIGKESCFERIVSRFGKKVTYVVIGDGRDEEIAAKQHNMPFWRITNHGDLVSLHQALELDFL
B2: Eya3: Eya3 protein purified from Escherichia coli (mEya3) or HEK293 FreeStyle cells (FLAG-hEya3) (protein)
chain: B1 Protein phosphatase EYA3 with A79H
modifications: left off: FLAG, end not stated, kept

Columns and labels:
B55α (His-B55) = experiment: Microscale thermophoresis (MST) binding of Eya3 to labeled His-B55; design: species or system human
From the text: We expressed and purified Eya3 protein from Escherichia coli and the His-B55α subunit from insect cells (Fig. S1). In the remainder of the article, we will use B55 to represent B55α for simplicity and PP2A–B55 to represent the holoenzyme containing the A, B55, and C subunits. We labeled His-B55 with the RED–Tris–NTA dye and carried out microscale thermophoresis (MST) experiments with increasing concentrations of Eya3.
The modeled Eya3 peptide (residues 65–86) interacts mostly with residues on blades 3 and 4 of the β-propeller on the B55 surface (including residues on the β2D and β3A loop, β3B and β3C loop, and β3D and β4A loop) and with residues on the α1 and α2 helix positioned above blade 5, as well as the α2 and β6A loop (Fig. 1F). In particular, residue H79^Eya3 forms pi–pi or pi–cation stacking with H179^B55 and a hydrogen bond with D197^B55 (Fig. 2A). […] Furthermore, Y77^Eya3 forms a hydrogen bond with the main chain carbonyl of L225^B55, and K75^Eya3 forms another hydrogen bond with Y337^B55 (Fig. 2, B and C). […] We expressed and purified Eya3 K75A, Y77A, and H79A mutant proteins from E. coli and carried out MST experiments with fluorescently labeled His-B55. […] While we were working on the structure of PP2A–B55 + Eya3, Padi et al. ([84]) published the cryo-EM structure of PP2A–B55 in complex with an Eya3 peptide (residues 62–108) on bioRxiv.
(§1) FLAG-hB55, FLAG-hEya3, GFP, and GFP-B55i were cloned into the pCAG vector; (GST)-mEya3 was cloned into pGEX-6p1; His-hB56γ1 was cloned into pGEX-4T1; and His-hB55 was cloned in pFASTbac, all using the NEBuilder HiFi DNA Assembly Cloning Kit (New England Biolabs). h and m represent human and mouse proteins, respectively.
GST-mEya3 and mutants were expressed in BL21 cells. Cells were lysed in lysis buffer containing 50 mM Tris (pH 7.5), 250 mM NaCl, 5% glycerol, 1 mM DTT, and protease inhibitor cocktail (PIC; Thermo Scientific). Lysis was done in ice with sonication using 4 × 45 s pulses with 2-min off periods. NaCl was brought up to 0.5 M using 5 M NaCl, and the lysate was centrifuged for 40 min at 18,000g. Supernatant was gravity-flown over glutathione resin twice. Resin was washed with 100 ml of lysis buffer. GST was cleaved with PreScission protease and eluted into lysis buffer. Eluates were pooled and concentrated with Amicon Ultra Centrifugal filters. Concentrated protein was separated on a pre-equilibrated S200 column for size-exclusion chromatography. Peaks were combined, concentrated again, aliquoted, and stored at −80 °C.
His-B55 was expressed in Hi5 cells. […]
His-B55 or His-B56γ1 labeled with […] (NanoTemper) was added to serial dilutions of mEya3 in PBS with 0.05% Tween-20. The samples were then read with a Monolith NT.115^Pico (NanoTemper) according to the manufacturer’s instructions.

B55 = details: Eya3 mutant; cited from earlier work
From the text: The modeled Eya3 peptide (residues 65–86) interacts mostly with residues on blades 3 and 4 of the β-propeller on the B55 surface (including residues on the β2D and β3A loop, β3B and β3C loop, and β3D and β4A loop) and with residues on the α1 and α2 helix positioned above blade 5, as well as the α2 and β6A loop (Fig. 1F). In particular, residue H79^Eya3 forms pi–pi or pi–cation stacking with H179^B55 and a hydrogen bond with D197^B55 (Fig. 2A). […] Furthermore, Y77^Eya3 forms a hydrogen bon ...

Myc = details: PP2A–B55α binding mutant; cited from earlier work
From the text: (§2) We have shown that Eya proteins directly interact with the PP2A–B55α but not B56 subunit. […] Moreover, all Eya family members can interact with PP2A–B55α through analogous disordered regions in their NTDs ([27], [46]).

[1] = tested on: triple-negative breast cancer (TNBC) tumor; details: PP2A–B55α binding mutant; cited from earlier work
From the text: as §2

[2] = tested on: Eya3 and B55 complex (FLAG-hEya3 + His-B55); experiment: Mass photometry of Eya3 and B55 complex formation and its disruption by B55i; format: binding, human; details: no B55i, 20 mM Tris (pH 8), 250 mM NaCl, 1 mM MnCl2, 0.5 mM TCEP, molar ratio 1.5:1, diluted to 100 nM
From the text: To evaluate the effect of B55i in cells, we expressed the B55i peptide as a GFP fusion on a plasmid in 66cl4 TNBC cells.
B, MST binding affinity curve showing the interaction between mEya3 and His-B55α. C, B55i disruption of the mEya3 and His-B55α interaction on MST. […] The amount of GFP and GFP-B55i expressed was also quantified using eGFP absorbance at 488 nm and normalized to total protein in the cell lysate. The datasets in all panels represent three independent biological replicates. Error bars represent the standard deviation. Statistical data analysis was done using Fmax tests followed by two-tailed, homoscedastic t tests. ∗p < 0.05, ∗∗p < 0.01, and ∗∗∗∗p < 0.0001. MST, microscale thermophoresis; TNBC, triple-negative breast cancer. […] It is uncertain whether these count as molecular weight results or as excluded spectrum labels.
as §1
hEya3 and PP2A–B55 were combined in 20 mM Tris (pH 8), 250 mM NaCl, 1 mM MnCl2, and 0.5 mM TCEP at a molar ratio of 1.5:1. […] Immediately prior to reading, the solution was diluted to 100 nM. Samples were analyzed on the Refeyn TwoMP (Refeyn).

PP2A–B55 = details: malachite green assay, peptide substrate KRpTIRR; 50 mM Tris [pH 7.5], 50 mM NaCl, 5 mM MgCl2, 0.1 mM EDTA; cited from earlier work
From the text: To identify the factor that led to this discrepancy, we first repeated our as ...

Myc pT58 = details: cited from earlier work
From the text: The weak inhibition of the PP2A–B55 activity by its B55 binders may have different consequences i ...

Row | Molecule | binding between Eya3 and B55 (mutants) (B55α (His-B55); fluorescently labeled His-B55, vs Eya3 WT) | interaction between Eya3 and B55 (B55) | Myc stabilization (Myc) | TNBC tumor metastasis [1] | Kd (B55α (His-B55); His-B55 labeled with Red–Tris–NTA dye, serial dilutions of Eya3 (mEya3, E. coli), PBS with 0.05% Tween-20, Monolith NT.115 Pico, three independent biological replicates (stated for Fig. 1A)) | Eya3 and B55 complex formation [2] | phosphatase activity of PP2A–B55 (PP2A–B55) | dephosphorylation of pT58 on Myc (Myc pT58)
1 | B1 | significantly reduce the binding between Eya3 and B55 | dramatically reduce the interaction between Eya3 and B55 | impeded Myc stabilization | impeded | – | – | – | –
2 | B2 | – | – | – | – | 1040 nM | Eya3 and B55 form a complex | increases the phosphatase activity of PP2A–B55 | clearly increases the dephosphorylation of pT58 on Myc
